One molecule from patent publication CN114573704A (dated 2022) can be followed below.

Assay [1] addresses T1, 筛选及检测用人PD-1-Fc抗原 (human PD-1-Fc, 百英生物 B3789) (human).
T1 construct: also called 带Fc标签的PD-1融合蛋白
The assay can be described thus: competition ELISA, PD-1-Fc coated, biotinylated PD-L1 as competitor, antibody titrated. A general note: An ELISA detects its analyte on a solid surface through an enzyme-linked reagent.

For assay [2], the target named is T2, 筛选及检测用人PD-1抗原 (human PD-1 extracellular domain with His tag, Sino Biological Cat.10377-H08H) (human, UniProt Q15116 25-167).
T2 construct: Bought product; the entry holds the extracellular domain and the His tag; also called PD-1蛋白
Put plainly: SPR Biacore T200, antibody captured on protein A CM5 chip, PD-1-His as analyte.

B1: WO2017054646中的IgG4型PD-1Ab646 (antibody, V domains shown)
VH: EVQLVESGGGLVQPGGSLRLSCAASGFTFSSYMMSWVRQAPGKGLEWVATISGGGANTYYPDSVKGRFTISRDNAKNSLYLQMNSLRAEDTAVYYCARQLYYFDYWGQGTTVTVSS
VL: DIQMTQSPSSLSASVGDRVTITCLASQTIGTWLTWYQQKPGKAPKLLIYTATSLADGVPSRFSGSGSGTDFTLTISSLQPEDFATYYCQQVYSIPWTFGGGTKVEIKR
notes: IgG4 positive control
The IC50 is the concentration that gives 50% inhibition. A high value points to weaker potency. One may read the Kd as the equilibrium constant for the complex coming apart. The low end stands for a tighter complex, the high end for a looser complex. As usually defined, the koff is the rate constant with which the complex falls apart. For orientation: kon means the rate constant with which the complex forms. B1: the IC50 in assay [1] turned out to be 2.79 nM. In assay [2], the Kd turned out to be 7.75 nM, the off-rate (koff) worked out at 0.000479 s⁻¹ and the kon is 61800 M⁻¹ s⁻¹.
